PMC2289352

Biological target: S1 triple mutant containing all three substitutions L108D, L112D, and V117D
Test: SEC

protein eluting in the void volume of Sephacryl S200 (self-association): > 50%
Substance: S1 triple mutant containing all three substitutions L108D, L112D, and V117D (domain or fragment)
